Laboratory results taken from publication PMC5694663.

Molecular target: JunB-6×His
Assay: co-purification

B1: mCherry-BATF1 (natural protein)
chain: MPHSSDSSDSSFSRSPPPGKQDSSDDVRKVQRREKNRIAAQKSRQRQTQKADTLHLESEDLEKQNAALRKEIKQLTEELKYFTSVLSSHEPLCSVLASGTPSPPEVVYSAHAFHQPHISSPRFQP
- stoichiometry N: 1
